In patent publication US10925971B2, “Methods of treating PRLR positive breast cancer” (Regeneron Pharmaceuticals, Inc., priority 2016, dated 2021):

What was measured:
[1] = test system: Macaca fascicularis PRLR (mfPRLR.mmh; SEQ ID NO:403); test: Surface plasmon resonance (Biacore T200), antibody-capture format; format: binding; settings: analyte mfPRLR.mmh
Method: (§1) Antibodies, expressed as human IgG1 Fc (i.e., “H1H” designations), were captured onto an anti-human Fc sensor surface (mAb-capture format), and soluble monomeric (hPRLR.mmh; SEQ ID NO:401, or Macaca fascicularis (mf) PRLR.mmh; SEQ ID NO:403) or dimeric (hPRLR.mFc; SEQ ID NO:402) PRLR protein was injected over the sensor surface. Measurements were conducted on a T200 Biacore instrument. Kinetic association (ka) and dissociation (kd) rate constants were determined by processing and fitting the data to a 1:1 binding model using Scrubber 2.0 curve fitting software.

[2] = target: T1, dimeric human PRLR (hPRLR.mFc; SEQ ID NO:402) (Homo sapiens, UniProt P16471); test: as above; format: binding; settings: analyte hPRLR.mFc
T1 construct: dimeric (hPRLR.mFc)
Method: as §1

[3] = target: T2, monomeric human PRLR (hPRLR.mmh; SEQ ID NO:401) (Homo sapiens, UniProt P16471); test: as above; format: binding; settings: analyte hPRLR.mmh
T2 construct: soluble monomeric (hPRLR.mmh); mmh (myc-myc-hexahistidine) (C)
Method: as §1

HEK293 parental cells = test: FACS cell surface binding; design: species or system human
Method: (§2) The ability of anti-PRLR antibodies to selectively bind PRLR expressing cell lines was next determined. Human, monkey Macaca fascicularis, and mouse PRLR constructs with an HA tag were stably introduced into HEK293 cells via Lipofectamine 2000-mediated transfection methodology. Transfectants (HEK293/hPRLR, HEK293/mfPRLR and HEK293/mPRLR) were selected for at least 2 weeks in complete growth media plus G418.
(§3) Cell surface expression of PRLR on 293/hPRLR cells was assessed via FACS analysis. Briefly, 1×10^5 cells were incubated with 10 μg/ml of Control antibody I, or an isotype control for 30 min on ice in antibody dilution buffer. Following two washes with antibody dilution buffer, cells were incubated with 10 μg/ml of PE conjugated anti-human secondary antibodies for 30 min on ice. Following two additional washes, samples were run on a Hypercyt® cytometer and analyzed in ForeCyt™ (IntelliCyt, Albuquerque, N. Mex.). The mean fluorescence intensities (MFI) were expressed as fold change above isotype control levels (background). FACS binding confirmed that Control I selectively bound to 293/hPRLR expressing cells with MFIs that were 30 fold above background (isotype ctrl) levels and less than 2 fold binding on parental cells.
(§4) Next, the anti-PRLR antibodies were tested via FACS for selective binding to the engineered overexpressing PRLR HEK293 cell lines, as well as to non-expressing HEK293 cells and a native PRLR expressing cell line (T47D).

[4] = target: T3, human PRLR on HEK293/hPRLR cells (Homo sapiens, UniProt P16471); test: FACS cell surface binding
T3 construct: HA; expressed in transfected cells; host or cells: HEK293
T3 sequence (P16471 25-622): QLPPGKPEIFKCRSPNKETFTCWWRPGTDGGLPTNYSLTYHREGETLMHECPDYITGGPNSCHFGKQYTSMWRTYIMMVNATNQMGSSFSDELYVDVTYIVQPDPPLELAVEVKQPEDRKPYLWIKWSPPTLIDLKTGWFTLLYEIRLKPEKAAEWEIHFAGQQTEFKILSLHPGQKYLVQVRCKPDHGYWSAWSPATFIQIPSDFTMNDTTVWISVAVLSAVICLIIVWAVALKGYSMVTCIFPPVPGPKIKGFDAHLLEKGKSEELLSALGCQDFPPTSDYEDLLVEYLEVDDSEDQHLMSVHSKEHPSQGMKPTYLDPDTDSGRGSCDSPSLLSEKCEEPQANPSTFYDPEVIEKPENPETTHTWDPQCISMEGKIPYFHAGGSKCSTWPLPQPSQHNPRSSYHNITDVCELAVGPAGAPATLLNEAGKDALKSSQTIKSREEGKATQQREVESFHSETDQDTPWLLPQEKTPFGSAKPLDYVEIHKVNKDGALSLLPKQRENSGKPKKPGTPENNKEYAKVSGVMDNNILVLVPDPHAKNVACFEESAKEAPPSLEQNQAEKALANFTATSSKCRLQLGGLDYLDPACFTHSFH
Method: as §2, §3, §4

[5] = target: T4, monkey PRLR on HEK293/mfPRLR cells (Macaca fascicularis, UniProt A0A2K5WXK1); test: FACS cell surface binding
T4 construct: HA; expressed in transfected cells; host or cells: HEK293
T4 sequence (A0A2K5WXK1 25-619): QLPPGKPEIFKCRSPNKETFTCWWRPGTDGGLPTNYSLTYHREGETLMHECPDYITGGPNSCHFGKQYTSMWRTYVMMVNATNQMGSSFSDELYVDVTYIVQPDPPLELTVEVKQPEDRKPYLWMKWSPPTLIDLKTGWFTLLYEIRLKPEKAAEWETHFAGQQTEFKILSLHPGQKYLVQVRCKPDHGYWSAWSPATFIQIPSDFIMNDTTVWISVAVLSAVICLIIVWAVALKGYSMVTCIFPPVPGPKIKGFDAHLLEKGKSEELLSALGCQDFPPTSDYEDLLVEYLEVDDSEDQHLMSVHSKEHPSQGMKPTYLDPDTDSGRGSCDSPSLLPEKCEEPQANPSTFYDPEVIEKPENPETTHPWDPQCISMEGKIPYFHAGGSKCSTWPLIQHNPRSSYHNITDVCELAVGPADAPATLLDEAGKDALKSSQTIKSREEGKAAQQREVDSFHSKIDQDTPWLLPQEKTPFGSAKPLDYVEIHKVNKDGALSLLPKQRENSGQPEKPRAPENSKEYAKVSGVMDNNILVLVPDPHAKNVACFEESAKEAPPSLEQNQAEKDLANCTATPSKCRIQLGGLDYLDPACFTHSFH
Method: as §2, §3, §4

[6] = target: T5, mouse PRLR on HEK293/mPRLR cells (Mus musculus, UniProt Q08501); test: FACS cell surface binding
T5 construct: HA; expressed in transfected cells; host or cells: HEK293
T5 sequence (Q08501 20-608): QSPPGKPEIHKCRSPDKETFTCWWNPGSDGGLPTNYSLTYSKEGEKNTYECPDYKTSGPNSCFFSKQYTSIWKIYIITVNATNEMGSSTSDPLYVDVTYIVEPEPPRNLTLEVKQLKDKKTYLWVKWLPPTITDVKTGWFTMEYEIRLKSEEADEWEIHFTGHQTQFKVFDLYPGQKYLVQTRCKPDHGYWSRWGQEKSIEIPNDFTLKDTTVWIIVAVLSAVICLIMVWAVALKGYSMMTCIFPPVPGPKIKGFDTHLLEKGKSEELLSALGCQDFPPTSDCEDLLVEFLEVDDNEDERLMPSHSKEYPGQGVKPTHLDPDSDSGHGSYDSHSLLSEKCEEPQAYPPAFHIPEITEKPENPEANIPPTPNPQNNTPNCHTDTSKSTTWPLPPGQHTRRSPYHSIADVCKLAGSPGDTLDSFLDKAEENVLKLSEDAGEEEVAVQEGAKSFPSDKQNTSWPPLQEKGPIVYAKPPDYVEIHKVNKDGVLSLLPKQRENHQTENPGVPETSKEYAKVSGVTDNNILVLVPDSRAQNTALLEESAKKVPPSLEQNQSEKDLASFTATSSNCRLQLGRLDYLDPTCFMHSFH
Method: as §2, §3, §4

[7] = target: T6, native PRLR expressing T47D cells (Homo sapiens, UniProt P16471); test: FACS cell surface binding
T6 construct: a native PRLR expressing cell line (T47D); endogenous in cells; host or cells: T47D
T6 sequence (P16471 25-622): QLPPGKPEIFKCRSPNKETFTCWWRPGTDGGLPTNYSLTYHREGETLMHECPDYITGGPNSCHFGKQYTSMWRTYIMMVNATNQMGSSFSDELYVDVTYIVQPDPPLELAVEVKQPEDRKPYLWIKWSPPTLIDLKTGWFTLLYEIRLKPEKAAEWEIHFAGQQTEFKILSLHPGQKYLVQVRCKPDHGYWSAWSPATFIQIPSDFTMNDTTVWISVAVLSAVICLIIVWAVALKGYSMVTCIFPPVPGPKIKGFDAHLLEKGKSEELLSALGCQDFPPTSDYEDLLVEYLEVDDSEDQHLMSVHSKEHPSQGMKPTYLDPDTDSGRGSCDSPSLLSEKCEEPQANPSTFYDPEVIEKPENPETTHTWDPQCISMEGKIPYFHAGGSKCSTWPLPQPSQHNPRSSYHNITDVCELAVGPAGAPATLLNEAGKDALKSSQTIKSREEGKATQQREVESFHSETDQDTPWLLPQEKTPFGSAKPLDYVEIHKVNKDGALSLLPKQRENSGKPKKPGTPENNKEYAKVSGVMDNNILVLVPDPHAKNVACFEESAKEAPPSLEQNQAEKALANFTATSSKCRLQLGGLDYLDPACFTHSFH
Method: as §3, §4

T2 sequence (P16471 with tags, fused parts or gaps): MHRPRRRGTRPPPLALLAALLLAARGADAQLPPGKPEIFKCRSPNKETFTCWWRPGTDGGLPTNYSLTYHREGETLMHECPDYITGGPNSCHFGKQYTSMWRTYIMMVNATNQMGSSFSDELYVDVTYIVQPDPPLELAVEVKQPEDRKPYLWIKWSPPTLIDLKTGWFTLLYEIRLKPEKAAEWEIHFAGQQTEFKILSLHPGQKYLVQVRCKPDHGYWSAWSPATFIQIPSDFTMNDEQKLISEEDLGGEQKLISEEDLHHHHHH
Macaca fascicularis PRLR (mfPRLR.mmh; SEQ ID NO:403), sequence (as listed by the source): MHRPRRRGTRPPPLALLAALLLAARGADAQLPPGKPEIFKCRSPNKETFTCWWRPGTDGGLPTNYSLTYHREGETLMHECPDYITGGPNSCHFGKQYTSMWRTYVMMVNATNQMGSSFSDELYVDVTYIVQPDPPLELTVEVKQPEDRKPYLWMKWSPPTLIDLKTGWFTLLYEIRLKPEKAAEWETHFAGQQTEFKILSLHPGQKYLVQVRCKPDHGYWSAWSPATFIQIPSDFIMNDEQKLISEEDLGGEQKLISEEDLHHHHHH
T1 sequence (P16471 with tags, fused parts or gaps): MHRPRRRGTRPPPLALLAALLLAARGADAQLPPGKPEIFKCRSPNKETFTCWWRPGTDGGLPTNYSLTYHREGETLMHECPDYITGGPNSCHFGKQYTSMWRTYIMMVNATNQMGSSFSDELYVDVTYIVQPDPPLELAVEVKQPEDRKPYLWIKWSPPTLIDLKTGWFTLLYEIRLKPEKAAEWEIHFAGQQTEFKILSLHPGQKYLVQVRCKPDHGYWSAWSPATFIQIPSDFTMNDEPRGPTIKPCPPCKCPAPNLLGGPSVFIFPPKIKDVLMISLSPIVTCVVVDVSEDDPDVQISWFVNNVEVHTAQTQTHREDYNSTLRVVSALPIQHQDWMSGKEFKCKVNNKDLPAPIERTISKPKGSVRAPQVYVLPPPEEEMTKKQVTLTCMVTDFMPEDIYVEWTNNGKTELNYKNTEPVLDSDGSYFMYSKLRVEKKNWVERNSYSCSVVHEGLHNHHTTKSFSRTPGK

B1: H1H6800P: fully human anti-PRLR antibody, human IgG1 Fc; HCVR/LCVR SEQ ID NOs 194/202 (antibody, V domains shown)
VH: EVQLVESGGGLVQPGRSLRLSCAASGFTFDGYAMHWVRQGPGKGLEWVSGISWYSDTLGYADSVKGRFTISRDNAKNSLYLQMNSLRTEDTAFYYCAKISSSGWAFDYWGQGTLVTVSS
VL: EIVLTQSPGTLSLSPGERATLSCRASHSVSSAYLAWYQQKPGQTPRLLIYGTSSRATGIPDRFSGSGSGTDFTLTISRLEPEDFAVYYCQQYGSSPLFTFGPGTKVDIK
With B1 the ka ([1]; 25° C.) was 303000 M/s, the kd ([1]; 25° C.) was 0.00038 s⁻¹ and the ka ([1]; 37° C.) was 439000 M/s. For the same molecule, the kd ([1]; 37° C.) was 0.00109 s⁻¹, the ka ([2]; 25° C.) was 473000 M/s and the kd ([2]; 25° C.) was 8.69e-05 s⁻¹. The ka ([2]; 37° C.) was 644000 M/s, the kd ([2]; 37° C.) was 0.000147 s⁻¹ and the ka ([3]; 25° C.) was 421000 M/s. It also gave a kd ([3]; 25° C.) of 0.000409 s⁻¹, a ka ([3]; 37° C.) of 808000 M/s and a kd ([3]; 37° C.) of 0.00119 s⁻¹. For the same molecule, the “FACS Cell Binding” value (HEK293 parental cells) was 1 Fold Above Background, the “FACS Cell Binding” value [4] was 35 Fold Above Background and the “FACS Cell Binding” value [5] was 29 Fold Above Background. The “FACS Cell Binding” value [6] was 1 Fold Above Background and the “FACS Cell Binding” value [7] was 41 Fold Above Background.

B2: H1H6790P: fully human anti-PRLR antibody, human IgG1 Fc; HCVR/LCVR SEQ ID NOs 114/122 (antibody, V domains shown)
VH: EVQLVESGGGLVQPGGSLRLSCAASGFTFSSYAMTWVRQAPGKGLEWVSAITGSVGNTYYADSVKGRFTISRDNSKNTLYLQMNSLGAEDTAEYYCAKGAGMTTNWYLDLWGRGTLVTVSS
VL: DIVMTQSPDSLAVSLGARATINCKSSQSVLYSSNNQNYLTWYQQKPGQPPKLLIKWASTRESGVPDRFSGSGSGTDFTLTISSLQAEDVAVYYCQQYASSPYTFGQGTKLEIK
Molecule B2 has a ka ([1]; 25° C.) of 389000 M/s, a kd ([1]; 25° C.) of 0.000793 s⁻¹ and a ka ([1]; 37° C.) of 615000 M/s. It also gave a kd ([1]; 37° C.) of 0.00321 s⁻¹, a ka ([2]; 25° C.) of 542000 M/s and a kd ([2]; 25° C.) of 0.000104 s⁻¹. For the same molecule, the ka ([2]; 37° C.) was 646000 M/s, the kd ([2]; 37° C.) was 0.000198 s⁻¹ and the ka ([3]; 25° C.) was 565000 M/s. The kd ([3]; 25° C.) was 0.000799 s⁻¹, the ka ([3]; 37° C.) was 940000 M/s and the kd ([3]; 37° C.) was 0.00329 s⁻¹. For the same molecule, the “FACS Cell Binding” value (HEK293 parental cells) was 1 Fold Above Background, the “FACS Cell Binding” value [4] was 37 Fold Above Background and the “FACS Cell Binding” value [5] was 24 Fold Above Background. For the same molecule, the “FACS Cell Binding” value [6] was 1 Fold Above Background and the “FACS Cell Binding” value [7] was 34 Fold Above Background.
